The target in the assay is T1, Human PCSK9 form a' (human, UniProt Q8NBP7 31-692).
T1 construct: also called PCSK9 a'
Put plainly: SPR (ProteOn XPR36), antibody captured on anti-human IgG, PCSK9 as analyte, 25 C, 1:1 model.

Experimental findings from US20160229907A1 (published 2016) are described below.

B1: Evolocumab (antibody, V domains shown)
VH: QVQLVQSGAEVKKPGASVKVSCKASGYTLTSYGISWVRQAPGQGLEWMGWVSFYNGNTNYAQKLQGRGTMTTDPSTSTAYMELRSLRSDDTAVYYCARGYGMDVWGQGTTVTVSS
VL: QSALTQPASVSGSPGQSITISCTGTSSDVGGYNSVSWYQQHPGKAPKLMIYEVSNRPSGVSNRFSGSKSGNTASLTISGLQAEDEADYYCNSYTSTSMVFGGGTKLTVL
In the case of B1, the affinity, expressed as Kd, was 0.185 nM; the koff (as a rule, the first-order rate constant of dissociation) came to 2.29e-05 s⁻¹; the kon (commonly the second-order rate constant of association) was 124000 M⁻¹ s⁻¹.

B2: Antibody 316P (antibody, V domains shown)
VH: EVQLVESGGGLVQPGGSLRLSCAASGFTFNNYAMNWVRQAPGKGLDWVSTISGSGGTTNYADSVKGRFIISRDSSKHTLYLQMNSLRAEDTAVYYCAKDSNWGNFDLWGRGTLVTVSS
VL: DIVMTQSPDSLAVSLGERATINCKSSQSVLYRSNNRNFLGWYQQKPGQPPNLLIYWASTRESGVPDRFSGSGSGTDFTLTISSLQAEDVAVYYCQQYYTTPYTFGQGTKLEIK
For B2, binding was put at a Kd of 0.181 nM, the koff was 0.000272 s⁻¹ and the kon came out at 1.5e+06 M⁻¹ s⁻¹.
